± gives the standard deviation of the averaged measurements.
System: Saccharomyces cerevisiae
Assay: protein stability index of tFT-peptide fusion (C-terminal peptide) (PSI (0-1 scale)); higher = more stable (slower turnover)
Settings: genetic background: wild type; temperature: 30 C
Description: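 Multiplexed protein stability (MPS) profiling in S. cerevisiae. Random 12-aa peptides (tFT-X12 library) are fused to the C-terminus of a sfGFP-mCherry tandem fluorescent timer, after mCherry and a GGGS linker. Cells are FACS-sorted into 8 mCherry/sfGFP bins and deep-sequenced. The protein stability index (PSI) is the read-weighted bin average, scaled from 0 (unstable) to 1 (stable). Only peptides with >10 reads are reported; cells were grown at 30 °C in SC-His with glucose.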
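Also: PSI is a weighted mean of sequencing reads over stability bins, variants kept only with over 10 reads, mCherry proximal and sfGFP distal, peptide attached via GGGS linker.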

Sequence	protein stability index
RRSAWCAALPGR	0.704 ± 0.0089
LGLPISREASVG	0.637 ± 0.011
LLMHPCTVELIS	0.594 ± 0.042
PRLVTLALPRTR	0.716 ± 0.015
FGLWGFGRPRGW	0.721 ± 0.031
LPPSPRLSFSPP	0.701 ± 0.034
SVCLRASSCFRS	0.648 ± 0.051
LDPPCPTARLPH	0.61 ± 0.052
SRRSCTLLSTTW	0.698 ± 0.022
MLLSVDWAGDEI	0.796 ± 0.11
GVRRVAVLYLLY	0.527 ± 0.041
NRLVQNRQVQLY	0.682 ± 0.014
DMSQKSENKKLI	0.689 ± 0.011
SSVSARHVPCSP	0.689 ± 0.027
PPLRPAADFRTT	0.733 ± 0.093
PPPLPLPPPLPP	0.533 ± 0.046
SVVSFIRRRSFL	0.8656 ± 0.0084
LPPPSPTPPPPP	0.683 ± 0.019
WWGWGGVACLLL	0.693 ± 0.059
QCIRLFCPLVSL	0.587 ± 0.014
PPPPPPTPSLRL	0.72 ± 0.021
SPLLPFPLPPSI	0.718 ± 0.018
VSNIVGRSLSCR	0.688 ± 0.014
PQPRDSLFSLGN	0.691 ± 0.032
AIRIERLGLAIP	0.682 ± 0.033

Sequence	protein stability index
RRHGTDEHKTAD	0.674 ± 0.016
LAVWSVVGGGVV	0.637 ± 0.008
IVPIVDMMIIRK	0.653 ± 0.068
KRRQGRGAKGGE	0.629 ± 0.045
TKKKQKIKKNNS	0.748 ± 0.042
VACFASRVLCRG	0.503 ± 0.024
GGGGGWAGENTR	0.715 ± 0.075
PPPLACLPLSLR	0.71 ± 0.043
PPPSPRSAPAAS	0.711 ± 0.1
SVLFDIGFSCRF	0.808 ± 0.026
IGAHTRRRVNGA	0.675 ± 0.096
FLSFLFTGFIQL	0.595 ± 0.017
EISPQGAKWQEG	0.655 ± 0.048
DIGGTDYDPAIS	0.7138 ± 0.0017
GGGGAGGWGAVG	0.67 ± 0.036
CRGVGGRTVING	0.692 ± 0.032
HRPPATFPVAHP	0.735 ± 0.042
SIQCHNTKKFYE	0.715 ± 0.032
PPAPPAPPPSVG	0.708 ± 0.03
DPLVDLCGPLSL	0.717 ± 0.077
GRGGWVHRRIGA	0.676 ± 0.035
IVLHLAASPTPP	0.65 ± 0.015
SLGCLLENRRGL	0.641 ± 0.015
PPPNPFRGPFPL	0.663 ± 0.035
PPVPPPSPPRLL	0.673 ± 0.03

Sequence	protein stability index
LGCGVSLWVVPG	0.712 ± 0.034
VSGGGEWRDAYG	0.677 ± 0.04
FALFQSFCFFCF	0.564 ± 0.061
SGFLAKNIKQLC	0.578 ± 0.042
KKKKKKNKKEKK	0.689 ± 0.12
KVSKHIKTNDSI	0.65 ± 0.02
WVGGVVMVPVLL	0.542 ± 0.0094
WGRGGSRGSWGA	0.716 ± 0.014
PSPIHSRQTQWF	0.707 ± 0.015
KKMNVKNNKSKI	0.777 ± 0.17
SASLPSPCPDFG	0.6703 ± 0.0021
EWGGGGGGGKCV	0.733 ± 0.054
GELPGLFRCCLM	0.492 ± 0.072
KAKKKRRGTSKN	0.703 ± 0.066
ERKQKKKTKEKY	0.682 ± 0.026
QNIRTELTSPRV	0.6596 ± 0.0016
PRYKQSSFAFKK	0.669 ± 0.036
IKKITKTKPNHN	0.673 ± 0.053
GGGGGGRAGVWG	0.687 ± 0.028
GVGRVGLACFVV	0.542 ± 0.029
MVARFGNEFMFL	0.695 ± 0.057
SGTVRSTPPHPP	0.664 ± 0.0072
PISCVLGFAFPS	0.708 ± 0.1
VLPAWSGTHFVG	0.714 ± 0.017
GFCLIVGVVPAL	0.5179 ± 0.0024

Sequence	protein stability index
YGAGLSHLFRIS	0.636 ± 0.041
LPQPQPPVPPPL	0.7209 ± 0.0042
RITWRSKKGLVI	0.71 ± 0.031
VRGKSARRSSRR	0.665 ± 0.029
GESIIQTCLNSI	0.845 ± 0.017
QGVPNEPLWARP	0.72 ± 0.027
VPRAPSPCPVSL	0.71 ± 0.046
FLWSSLYYARLD	0.75 ± 0.032
LLGVGYGSGGWR	0.633 ± 0.089
GGRPIRNTTREG	0.655 ± 0.022
GFLCDTVRLGCA	0.702 ± 0.058
YCHVPVVGSWIP	0.735 ± 0.067
QSRERDGSIRNP	0.644 ± 0.021
ASLHAPPLPPLC	0.689 ± 0.02
PSSSPPLLPPPA	0.638 ± 0.026
PRPPPPPPPLPP	0.692 ± 0.03
QRGGTWGALWEG	0.671 ± 0.02
AGGAASWPAFFP	0.793 ± 0.02
RCSFSYLPVIQV	0.582 ± 0.006
LHFGSSSSRDFM	0.709 ± 0.027
GLVHGSWGCQCD	0.714 ± 0.015
PCPETPLLTRAA	0.651 ± 0.0094
SSSLRLCSCAGQ	0.723 ± 0.049
GRTKFIPTPSTY	0.712 ± 0.023
VGFFGMGVLPEG	0.741 ± 0.013

Sequence	protein stability index
ASEGRWVSVMGG	0.686 ± 0.05
GWWGGEGVEGEP	0.6846 ± 0.0015
RFAEEDFIVERT	0.727 ± 0.019
TPPVPVPPPQLL	0.748 ± 0.044
CPYIFLLSLGNT	0.651 ± 0.017
CVIESIEQCLSR	0.716 ± 0.045
ERRGAAGAGSTR	0.744 ± 0.045
GETGGACGVWAG	0.685 ± 0.066
VIGSSGRVGGLG	0.6913 ± 0.0028
GGGSITTFIGDE	0.695 ± 0.018
PPPTHRDPLPTP	0.684 ± 0.048
YPTCPPPSARRV	0.58 ± 0.025
TAWVDSMVCMLL	0.71 ± 0.034
PFPQVPFPRLAY	0.681 ± 0.066
ANEAAYICKGNG	0.682 ± 0.039
LGAAMRSAVEAA	0.64 ± 0.013
TLEGRQKEMGIA	0.691 ± 0.037
GGGGGGPGGVLK	0.706 ± 0.092
NHRANSNPRLRY	0.731 ± 0.0095
DIRFSAARRPTG	0.6627 ± 0.0053
PPLSLSPYPLPH	0.69464 ± 0.0002
IRSAGEKDRKRE	0.696 ± 0.03
NKKDHTLTKKRT	0.661 ± 0.063
CLPQCLNPDFAE	0.645 ± 0.0066
HILESKKAGPGD	0.635 ± 0.053

Sequence	protein stability index
PTGCPPGVTPCL	0.681 ± 0.022
MRSLLDPLSNSC	0.7804 ± 0.0065
PLPSPSLLLHCP	0.592 ± 0.0013
PQESRAWTLSSA	0.713 ± 0.05
KACVKRVYCILE	0.58 ± 0.015
SSFSACPTKIII	0.686 ± 0.048
PPSAPPPSYHPP	0.607 ± 0.045
RSDPLPKTSAAY	0.644 ± 0.12
SLDGTVHARRAH	0.695 ± 0.07
RWGGWGYRGGVP	0.752 ± 0.062
LDHFGASYCPRG	0.706 ± 0.027
LSPGRPPRPPRR	0.702 ± 0.041
SLCLPFPSSPPP	0.677 ± 0.0083
DHHGGTEPHRVP	0.7079 ± 0.0052
DLVGSWMCGPDL	0.691 ± 0.028
AESLGLNYGSVY	0.657 ± 0.05
STCRCGGFRNGS	0.762 ± 0.068
GGVGWWVGVVWG	0.624 ± 0.071
FGSLRLQITVNP	0.557 ± 0.098
LVSHVPLLPMTP	0.776 ± 0.03
GSVGFPDRLLCL	0.73 ± 0.033
